Results from patent US20090068110A1, “ANTIBODIES TO INSULIN-LIKE GROWTH FACTOR RECEPTOR” (Genentech, Inc., priority 2006, published 2009).
Values belong to the molecule of their own block, whether it stands above or below them.

Legend:
[1] = tested on: cynomolgus-monkey IGF-1R; experiment: BIACORE surface-plasmon resonance, cynomolgus-monkey IGF-1R; type: binding; conditions: IgG, FIG. 15
Procedure: Binding affinities of selected antibodies to IGF-1R were determined by surface plasmon resonance measurements on a BIACORE™ 3000 instrument (BIAcore, Inc.). Human, murine, or cynomolgus-monkey IGF-1R was immobilized at a density of about 500 RU on the flow cells of a PIONEER™ CM5 sensor chip. Immobilization was achieved by random coupling through amino groups using a protocol provided by the manufacturer. Sensorgrams were recorded for binding of anti-IGF-1R Fab or IgG to these surfaces by injection of a series of solutions ranging from 500 nM to 3.1 nM and 250 nM to 0.78 nM in two-fold increments, respectively. The signal from the reference cell was subtracted from the observed sensorgram. Kinetic constants were calculated by non-linear regression analysis of the data according to a 1:1 Languir binding model using software supplied by the manufacturer.

[2] = tested on: MCF7 cells; experiment: cell viability assay ([…]-GLO), MCF7; type: cell-based, human; conditions: in the presence of IGF-I
Procedure: The different cell lines were cultured in their respective culture media at 37° C. in a humidified atmosphere of 5% CO2. Subsequently, cells were detached from tissue-culture flasks using the cell-dissociation solution, TRIPLE SELECT™ solution (InVitrogen, Carlsbad, Calif., USA), and centrifuged at 1000 rpm for five minutes. Detached cells were washed once with PBS, counted, and seeded in 96-well plates (Corning, N.Y., USA) at 2000 cells per well in 100 μL of culture media. After an overnight incubation at 37° C. in a humidified atmosphere of 5% CO2, the cell-culture medium was replaced with 50 μL of starvation medium consisting of serum-free RPMI 1640™ medium without phenol red. The cells were then starved for five hours in the incubator before addition of 25 μL of each anti-IGF-1R monoclonal antibody at various dilutions in serum-free RPMI 1640™ phenol red-free media. Later, 25 μL of phenol red-free RPMI 1640™ media supplemented with 4% of fetal bovine serum (FBS) (Sigma) with or without 4 ng/ml of human recombinant IGF-I were added on top of the 50 μL of antibody. The cells were then placed at 37° C. with 5% CO2 for 5 to 6 days. At the end of the assay, cell viability was measured using the […]-GLO® kit according to the manufacturer's instructions (Promega, Madison, Wis., USA).
For the cell viability assay, MCF7 cells were seeded onto 96-well plates at 2000 cells/well and incubated overnight at 37° C. in a humidified atmosphere of 5% CO2/95% air in RPMI 1640™ medium supplemented with 10% FBS (Sigma, St. Louis, Mo.) and 1% GLUTAMAX™ reagent (Promega, Madison, Wis.). The next day cells were starved in serum-free RPMI 1640™ medium (phenol red-free) for five hours followed by addition of serially diluted human chimeric versions of 9F2, 2B4, and 10H5, as well as h10H5.vX, for one hour. Subsequently, phenol red-free PRMI 1640™ medium supplemented with FBS or IGF-I was added to reach a final concentration of 1% FBS and 1 ng/mL IGF-I. Cells were then incubated with continuous IGF-1R antibody exposure. After five days, the cell viability was then determined using a […]-GLO™ kit (Promega, Madison, Wis.) according to the manufacturer's instructions.

[3] = target: IGF-1R (Homo sapiens, UniProt P08069); experiment: antibody-induced IGF-1R down-regulation in MCF7 cells, Western blotting; type: cell-based; design: IGF-1R is normally localized at the plasma membrane of MCF7 cells; endogenous in cells; host or cells: MCF7; conditions: 10 μg/ml, 1, 4, 8 or 24 hours, 10% serum
Procedure: Further exploration of the mechanism of action of anti-IGF-1R antibodies was carried out by testing the ability of the antibodies of the invention, particularly human chimeric antibodies of 2B4, 9F2, 10H5, as well as human phage antibody YW95.6, to induce IGF-1R down-regulation. MCF7 cells were treated with various antibodies (10 μg/ml) for 1, 4, 8, or 24 hours in the presence of 10% serum-containing medium. The cell lysates were harvested, separated by SDS-PAGE, and analyzed for IGF-1R levels by Western blotting using an anti-IGF-1R beta-chain antibody (Cell Signaling Technology, Inc.; Beverly, Mass., USA) or anti-beta-actin antibody.
In a separate experiment, MCF7 cells were treated with serially diluted h10H5, and the cell lysates were analyzed for IGF-1R and IR levels using anti-IGF-1R and anti-IR β-chain antibodies at 1, 2, 4, and 8 hours post-continuous treatment.

binding to human versus cyno IGF-1R [1]: comparable for human and cyno IGF-1R
B1: chimeric 10H5: human chimeric version of murine 10H5, human IgG1 (antibody, V domains shown)
VH: QVQLQQPGAELVKPGASVTLSCKASGYTFTRFWIHWVKQRPGQGLEWIGEINPSNGRTNYNENFKNKATLTVDTSSSTAYMQLSSLTSEVSVVYYCARGGRLDQWGQGTT
VL: DIVMTQSQKFMSTSLGDRVSVTCKASQNVGSNVAWYQQKPGQSPEALIYSASYRYSGVPDRFTGSGSGTDFTLTISNVQSEDLAEYFCHQYNNYPYTFGGGTKVEIKR
comparison of inhibitory effect on MCF7 proliferation / viability [2]: equivalent at decreasing the MCF7 cell viability
IGF-1R down-regulation [3]: rapidly down-regulated and reached maximal reduction by eight hours

binding to human versus cyno IGF-1R [1]: comparable for human and cyno IGF-1R
B2: chimeric 9F2: human chimeric version of murine 9F2, human IgG1 (antibody, V domains shown)
VH: QIQLVQSGPELKKPGETVKISCKASGYTLANYGMNWVKQAPGKGFKWMGWINTNTGKPTYSDEFKGRFVFSLETSASTAYLLINNLSNEDTATYFCARSIYYYGSRYFNVWGAGTT
VL: DIQMTQSTSSLSASLGDRVTISCRASQDINNYLTWYQQKPDGTVKLLIYYTSRLHSGVPSRFSGSGSGTDYSLTITNLEQEDFATYFCQQGNTLPWTFGEGTKVEIKR
comparison of inhibitory effect on MCF7 proliferation / viability [2]: equivalent at decreasing the MCF7 cell viability
IGF-1R down-regulation [3]: rapidly down-regulated and reached maximal reduction by eight hours
